Laboratory results from paper PMC7534926 (The Journal of Cell Biology, 2020).
No end group written: not given here. *: point of attachment. Biotin = O=C1N[C@H]2[C@H](CS[C@H]2CCCCC(=O)*)N1

Assays:
[1] = biological target: endogenous delta-catenin of rat hippocampal neurons (rat (endogenous in primary hippocampal neurons)) (UniProt O35116); experiment: proximity ligation
Pdlim5 PDZ domain = Pdlim5 PDZ domain (UniProt Q96HC4); experiment: PDZ-domain microarray probed with biotinylated peptide
Erbin PDZ domain = Erbin PDZ domain (UniProt Q96RT1); experiment: as above; conditions: reference: unphosphorylated peptide; sites S1242,S1245
Magi1 = Magi1 (UniProt Q4L1J4); experiment: proximity ligation assay; conditions: reference: no treatment; sites S1242
Pdlim5 = Pdlim5 (UniProt Q62920); experiment: proximity ligation assay; conditions: reference: no treatment; sites S1242
[2] = biological target: GST fusion of the PDZ domain of Erbin (array) (human, UniProt Q96RT1 1321-1410); experiment: peptide or protein array
Sequence of GST fusion of the PDZ domain of Erbin (array) (Q96RT1 1321-1410): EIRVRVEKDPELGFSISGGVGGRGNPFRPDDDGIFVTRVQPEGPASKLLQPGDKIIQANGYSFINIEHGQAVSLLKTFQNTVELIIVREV

Sequence of endogenous delta-catenin of rat hippocampal neurons (rat (endogenous in primary hippocampal neurons)) (O35116 whole entry, stated change not applied, the tested form may be a part): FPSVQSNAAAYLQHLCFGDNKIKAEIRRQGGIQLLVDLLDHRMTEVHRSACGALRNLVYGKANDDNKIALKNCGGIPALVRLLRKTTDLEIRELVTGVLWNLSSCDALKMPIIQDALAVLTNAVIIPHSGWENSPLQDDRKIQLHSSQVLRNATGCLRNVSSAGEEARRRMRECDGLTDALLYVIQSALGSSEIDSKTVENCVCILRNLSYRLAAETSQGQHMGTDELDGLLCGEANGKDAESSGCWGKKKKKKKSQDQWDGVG
Sequence of Magi1 (Q4L1J4 whole entry, looked up): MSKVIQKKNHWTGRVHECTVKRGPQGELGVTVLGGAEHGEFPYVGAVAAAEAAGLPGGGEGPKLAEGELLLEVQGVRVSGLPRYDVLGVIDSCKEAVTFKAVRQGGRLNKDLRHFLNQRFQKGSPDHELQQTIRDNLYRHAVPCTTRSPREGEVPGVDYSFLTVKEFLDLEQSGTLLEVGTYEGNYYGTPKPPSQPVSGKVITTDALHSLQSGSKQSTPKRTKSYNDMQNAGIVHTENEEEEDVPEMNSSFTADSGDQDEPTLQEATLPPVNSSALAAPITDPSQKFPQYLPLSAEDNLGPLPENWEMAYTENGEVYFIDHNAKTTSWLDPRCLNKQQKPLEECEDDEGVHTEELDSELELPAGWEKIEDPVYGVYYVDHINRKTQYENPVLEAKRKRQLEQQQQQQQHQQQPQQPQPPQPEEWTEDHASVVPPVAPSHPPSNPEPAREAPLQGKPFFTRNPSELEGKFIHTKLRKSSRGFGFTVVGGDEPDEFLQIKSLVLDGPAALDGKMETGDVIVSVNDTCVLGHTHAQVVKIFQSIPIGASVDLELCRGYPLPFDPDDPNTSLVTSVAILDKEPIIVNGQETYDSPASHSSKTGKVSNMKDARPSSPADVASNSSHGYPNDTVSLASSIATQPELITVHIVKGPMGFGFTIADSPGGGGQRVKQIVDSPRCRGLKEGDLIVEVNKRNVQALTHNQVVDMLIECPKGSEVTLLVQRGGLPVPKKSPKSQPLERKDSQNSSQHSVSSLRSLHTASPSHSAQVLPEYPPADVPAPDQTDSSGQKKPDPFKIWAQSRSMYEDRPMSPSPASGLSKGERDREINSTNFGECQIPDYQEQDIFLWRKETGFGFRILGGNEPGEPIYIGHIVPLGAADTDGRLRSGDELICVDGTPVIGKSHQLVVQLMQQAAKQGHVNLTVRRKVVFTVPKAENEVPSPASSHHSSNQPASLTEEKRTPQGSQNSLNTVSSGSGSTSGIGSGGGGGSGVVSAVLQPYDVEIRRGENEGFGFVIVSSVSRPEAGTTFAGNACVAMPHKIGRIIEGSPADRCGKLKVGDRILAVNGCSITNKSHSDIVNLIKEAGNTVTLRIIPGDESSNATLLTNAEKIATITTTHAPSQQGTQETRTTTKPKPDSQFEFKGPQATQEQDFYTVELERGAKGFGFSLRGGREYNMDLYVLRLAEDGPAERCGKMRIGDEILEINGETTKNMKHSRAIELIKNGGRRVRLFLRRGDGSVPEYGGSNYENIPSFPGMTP

Row | PLA puncta per cell (20 µM DHPG, 10 min) [1] | PLA puncta per cell (no treatment) [1] | PLA puncta per neuron (puncta per neuron) [1] | Molecule | other results
1 | 8.95 puncta/cell | 21.1 puncta/cell | 16 | endogenous Magi1 of rat hippocampal neurons (from UniProt Q4L1J4 1-1255) (natural protein) | –
2 | 54.2 puncta/cell | 20.5 puncta/cell | 37.7 | endogenous Pdlim5 of rat hippocampal neurons (natural protein) MSNYNVSLVGPAPWGFRLQGGKDFNMPLTISSLKDGGKASQAHVRIGDVVLSIDGISAQGMTHLEAQNKIKACTGSLNMTLQRASAAAKSEPVAVQKGEPKEVVKPVPITSPAVSKVTSTTNMAYNKVPRPFGSVSSPKVTSIPSPSSAFTPAHAATSSHASPPPVAAVTPPPLSASGLHASANPSAAQCSSPPNTGKPAVHVPRQPTVTSVCSESAQELAEGQRRGSQGDIKQQNGPPRKHIVERNTEFYHIPTHSDASKKRLIEDTEDWRPRTGTTQSRSFRILAQITGTEHLKESENDNAKKANSTPEPSQQSASPLSAAESLESPGSNRPVVAGLRSAAAFKPVGSTSVKSPSWQRPNQAAPSTGRISNSASSSGTGAPMKPAVGPPQPSDQDTLVQRAEHIPAGKRTPMCAHCNQAIRGPFLVALGKSWHPEEFNCAHCKNTMAYIGFVEEKGALYCELCYEKFFAPECGRCQRKILGEVINALKQTWHVSCFVCVACGKPIRNNVFHLEDGEPYCETDYYALFGTICRGCEFPIEAGDMFLEALGSTWHDTCFVCSVCCESLEGQTFFSKKDKPLCKKHAHSVNF | –

More lines, now with the values behind:

Row | Molecule | PLA puncta per cell (20 µM DHPG, 10 min) [1] | PLA puncta per cell (no treatment) [1] | PLA puncta per neuron (puncta per neuron) [1] | other results
3 | delta-catenin C-terminal PDZ-binding motif (from UniProt O35927) pS1242 + pS1245 peptide | – | – | – | binding against the reference (Pdlim5 PDZ domain; reference: pS1242-only peptide, sites S1245): stronger; binding against the reference (Pdlim5 PDZ domain; reference: pS1245-only peptide, sites S1242): stronger
4 | delta-catenin C-terminal PDZ-binding motif (from UniProt O35927) phosphorylated peptide (doubly phosphorylated probe assumed) | – | – | – | binding against the reference (Erbin PDZ domain): same
5 | delta-catenin 20 µM DHPG, 10 min | – | – | – | other: PLA puncta per cell (Magi1): weaker; reference 21.15 ± 7.24; other: PLA puncta per cell (Pdlim5): stronger; reference 20.46 ± 1.41
6 | Biotin-TSHYPASPDSWV [delta-catenin PDZ-binding motif peptide, De-Phospho (Biotin-TSHYPASPDSWV)] | – | – | – | binding result [2]: binds
